Consider 9 sequences from the supplement of paper PMC5998384.

For data set [1], the system named is HeLa Kyoto. Briefly: solubility in G1/S (NP-40 vs SDS abundance) (log2 ratio); higher = more soluble. The following applies: cell cycle stage: G1/S.
The test system of data set [2] is HeLa Kyoto. Briefly: solubility change mitosis vs G1/S (difference of NP-40 vs SDS log2 ratios) (log2 ratio difference); higher = more soluble in mitosis.
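Wherever solubility change mitosis vs G1/S (difference of NP-40 vs SDS log2 ratios) is given: synchronized HeLa Kyoto cells (double thymidine block for G1/S, nocodazole release for mitosis), protein amounts in NP-40 versus SDS lysates quantified by mass spectrometry, three biological replicates.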
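Wherever solubility in G1/S (NP-40 vs SDS abundance) is given: HeLa Kyoto cells arrested at G1/S by double thymidine block, proteins quantified by TMT10plex mass spectrometry in mild NP-40 versus SDS extracts, three biological replicates.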

For the sequence “MAVDVAEYHLSVIKSPPGWEVGVYAAGALALLGIAAVSLWKLWTSGSFPSPSPFPNYDYRYLQQKYGESCAEAREKRVPAWNAQRASTRGPPSRKGSLSIEDTFESISELGPLELMGRELDLAPYGTLRKSQSADSLNSISSVSNTFGQDFTLGQVEVSMEYDTASHTLNVAVMQGKDLLEREEASFESCFMRVSLLPDEQIVGISRIQRNAYSIFFDEKFSIPLDPTALEEKSLRFSVFGIDEDERNVSTGVVELKLSVLDLPLQPFSGWLYLQDQNKAADAVGEILLSLSYLPTAERLTVVVVKAKNLIWTNDKTTADPFVKVYLLQDGRKMSKKKTAVKRDDPNPVFNEAMIFSVPAIVLQDLSLRVTVAESSSDGRGDNVGHVIIGPSASGMGTTHWNQMLATLRRPVSMWHAVRRN [SYT12]”, in the data set with HeLa Kyoto [1], the “solubility in G1/S (log2)” value was 0.0502. In addition, the “solubility change mitosis (log2)” value with HeLa Kyoto [2] is -0.135.
On the same counts, the results for “MAVTAQAARRKERVLCLFDVDGTLTPARQKIDPEVAAFLQKLRSRVQIGVVGGSDYCKIAEQLGDGDEVIEKFDYVFAENGTVQYKHGRLLSKQTIQNHLGEELLQDLINFCLSYMALLRLPKKRGTFIEFRNGMLNISPIGRSCTLEERIEFSELDKKEKIREKFVEALKTEFAGKGLRFSRGGMISFDVFPEGWDKRYCLDSLDQDSFDTIHFFGNETSPGGNDFEIFADPRTVGHSVVSPQDTVQRCREIFFPETAHEA [PMM1]” are 0.195 and 0.102.
In the case of “MAVWIQAQQLQGEALHQMQALYGQHFPIEVRHYLSQWIESQAWDSVDLDNPQENIKATQLLEGLVQELQKKAEHQVGEDGFLLKIKLGHYATQLQNTYDRCPMELVRCIRHILYNEQRLVREANNGSSPAGSLADAMSQKHLQINQTFEELRLVTQDTENELKKLQQTQEYFIIQYQESLRIQAQFGPLAQLSPQERLSRETALQQKQVSLEAWLQREAQTLQQYRVELAEKHQKTLQLLRKQQTIILDDELIQWKRRQQLAGNGGPPEGSLDVLQSWCEKLAEIIWQNRQQIRRAEHLCQQLPIPGPVEEMLAEVNATITDIISALVTSTFIIEKQPPQVLKTQTKFAATVRLLVGGKLNVHMNPPQVKATIISEQQAKSLLKNENTRNDYSGEILNNCCVMEYHQATGTLSAHFRNMSLKRIKRSDRRGAESVTEEKFTILFESQFSVGGNELVFQVKTLSLPVVVIVHGSQDNNATATVLWDNAFAEPGRVPFAVPDKVLWPQLCEALNMKFKAEVQSNRGLTKENLVFLAQKLFNNSSSHLEDYSGLSVSWSQFNRENLPGRNYTFWQWFDGVMEVLKKHLKPHWNDGAILGFVNKQQAHDLLINKPDGTFLLRFSDSEIGGITIAWKFDSQERMFWNLMPFTTRDFSIRSLADRLGDLNYLIYVFPDRPKDEVYSKYYTPVPCESATAKAVDGYVKPQIKQVVPEFVNASADAGGGSATYMDQAPSPAVCPQAHYNMYPQNPDSVLDTDGDFDLEDTMDVARRVEELLGRPMDSQWIPHAQS [STAT5B]”, the “solubility in G1/S (log2)” value with HeLa Kyoto [1] was -0.0111. Further, in the data set on HeLa Kyoto [2], the “solubility change mitosis (log2)” value is -0.309.
Taken in the same sequence, the figures for “MAWWKAWIEQEGVTVKSSSHFNPDPDAETLYKAMKGIGTNEQAIIDVLTKRSNTQRQQIAKSFKAQFGKDLTETLKSELSGKFERLIVALMYPPYRYEAKELHDAMKGLGTKEGVIIEILASRTKNQLREIMKAYEEDYGSSLEEDIQADTSGYLERILVCLLQGSRDDVSSFVDPALALQDAQDLYAAGEKIRGTDEMKFITILCTRSATHLLRVFEEYEKIANKSIEDSIKSETHGSLEEAMLTVVKCTQNLHSYFAERLYYAMKGAGTRDGTLIRNIVSRSEIDLNLIKCHFKKMYGKTLSSMIMEDTSGDYKNALLSLVGSDP [ANXA8L1]” were 0.415 and -0.077.
On the same counts, the results for “MCARMAGRTTAAPRGPYGPWLCLLVALALDVVRVDCGQAPLDPVYLPAALELLDAPEHFRVQQVGHYPPANSSLSSRSETFLLLQPWPRAQPLLRASYPPFATQQVVPPRVTEPHQRPVPWDVRAVSVEAAVTPAEPYARVLFHLKGQDWPPGSGSLPCARLHATHPAGTAHQACRFQPSLGACVVELELPSHWFSQASTTRAELAYTLEPAAEGPGGCGSGEENDPGEQALPVGGVELRPADPPQYQEVPLDEAVTLRVPDMPVRPGQLFSATLLLRHNFTASLLTLRIKVKKGLHVTAARPAQPTLWTAKLDRFKGSRHHTTLITCHRAGLTEPDSSPLELSEFLWVDFVVENSTGGGVAVTRPVTWQLEYPGQAPEAEKDKMVWEILVSERDIRALIPLAKAEELVNTAPLTGVPQHVPVRLVTVDGGGALVEVTEHVGCESANTQVLQVSEACDAVFVAGKESRGARGVRVDFWWRRLRASLRLTVWAPLLPLRIELTDTTLEQVRGWRVPGPAEGPAEPAAEASDEAERRARGCHLQYQRAGVRFLAPFAAHPLDGGRRLTHLLGPDWLLDVSHLVAPHARVLDSRVASLEGGRVVVGREPGVTSIEVRSPLSDSILGEQALAVTDDKVSVLELRVQPVMGISLTLSRGTAHPGEVTATCWAQSALPAPKQEVALSLWLSFSDHTVAPAELYDRRDLGLSVSAEEPGAILPAEEQGAQLGVVVSGAGAEGLPLHVALHPPEPCRRGRHRVPLASGTAWLGLPPASTPAPALPSSPAWSPPATEATMGGKRQVAGSVGGNTGVRGKFERAEEEARKEETEAREEEEEEEEEMVPAPQHVTELELGMYALLGVFCVAIFIFLVNGVVFVLRYQRKEPPDSATDPTSPQPHNWVWLGTDQEELSRQLDRQSPGPPKGEGSCPCESGGGGEAPTLAPGPPGGTTSSSSTLARKEAGGRRKRVEFVTFAPAPPAQSPEEPVGAPAVQSILVAGEEDIRWVCEDMGLKDPEELRNYMERIRGSS [TMEM132A]” are -0.00491 and -0.0467.
Taken in the same sequence, the figures for “MCDQQKQPQFPPSCVKGSGLGAGQGSNGASVKCPVPCQTQTVCVTGPAPCPTQTYVKYQVPCQTQTYVKCPAPCQRTYVKYPTPCQTYVKCPAPCQTTYVKCPTPCQTYVKCPAPCQMTYIKSPAPCQTQTCYVQGASPCQSYYVQAPASGSTSQYCVTDPCSAPCSTSYCCLAPRTFGVSPLRRWIQRPQNCNTGSSGCCENSGSSGCCGSGGCGCSCGCGSSGCCCLGIIPMRSRGPACCDHEDDCCC [XP32]” were -1.33 and 1.06.
In the case of “MDAAEPGLPPGPEGRKRYSDIFRSLDNLEISLGNVTLEMLAGDPLLSEDPEPDKTPTATVTNEASCWSGPSPEGPVPLTGEELDLRLIRTKGGVDAALEYAKTWSRYAKELLAWTEKRASYELEFAKSTMKIAEAGKVSIQQQSHMPLQYIYTLFLEHDLSLGTLAMETVAQQKRDYYQPLAAKRTEIEKWRKEFKEQWMKEQKRMNEAVQALRRAQLQYVQRSEDLRARSQGSPEDSAPQASPGPSKQQERRRRSREEAQAKAQEAEALYQACVREANARQQDLEIAKQRIVSHVRKLVFQGDEVLRRVTLSLFGLRGAQAERGPRAFAALAECCAPFEPGQRYQEFVRALRPEAPPPPPPAFSFQEFLPSLNSSPLDIRKKLSGPLPPRLDENSAEPGPWEDPGTGWRWQGTPGPTPGSDVDSVGGGSESRSLDSPTSSPGAGTRQLVKASSTGTESSDDFEERDPDLGDGLENGLGSPFGKWTLSSAAQTHQLRRLRGPAKCRECEAFMVSGTECEECFLTCHKRCLETLLILCGHRRLPARTPLFGVDFLQLPRDFPEEVPFVVTKCTAEIEHRALDVQGIYRVSGSRVRVERLCQAFENGRALVELSGNSPHDVSSVLKRFLQELTEPVIPFHLYDAFISLAKTLHADPGDDPGTPSPSPEVIRSLKTLLVQLPDSNYNTLRHLVAHLFRVAARFMENKMSANNLGIVFGPTLLRPPDGPRAASAIPVTCLLDSGHQAQLVEFLIVHYEQIFGMDELPQATEPPPQDSSPAPGPLTTSSQPPPPHLDPDSQPPVLASDPGPDPQHHSTLEQHPTATPTEIPTPQSDQREDVAEDTKDGGGEVSSQGPEDSLLGTQSRGHFSRQPVKYPRGGVRPVTHQLSSLALVASKLCEETPITSVPRGSLRGRGPSPAAASPEGSPLRRTPLPKHFEITQETARLLSKLDSEAVPRATCCPDVQPEEAEDHL [GMIP]”, in the data set with HeLa Kyoto [1], the “solubility in G1/S (log2)” value was 0.095. For the same sequence, the “solubility change mitosis (log2)” value in the data set with HeLa Kyoto [2] was 0.0497.
Taken in the same sequence, the figures for “MDEEPERTKRWEGGYERTWEILKEDESGSLKATIEDILFKAKRKRVFEHHGQVRLGMMRHLYVVVDGSRTMEDQDLKPNRLTCTLKLLEYFVEEYFDQNPISQIGIIVTKSKRAEKLTELSGNPRKHITSLKEAVDMTCHGEPSLYNSLSMAMQTLKHMPGHTSREVLIIFSSLTTCDPSNIYDLIKTLKAAKIRVSVIGLSAEVRVCTVLARETGGTYHVILDESHYKELLTHHLSPPPASSSSECSLIRMGFPQHTIASLSDQDAKPSFSMAHLDGNTEPGLTLGGYFCPQCRAKYCELPVECKICGLTLVSAPHLARSYHHLFPLDAFQEIPLEEYNGERFCYGCQGELKDQHVYVCAVCQNVFCVDCDVFVHDSLHCCPGCIHKIPAPSGV [GTF2H2C]” were -0.398 and 0.181.
On the same counts, the results for “MDEKTKKAEEMALSLTRAVAGGDEQVAMKCAIWLAEQRVPLSVQLKPEVSPTQDIRLWVSVEDAQMHTVTIWLTVRPDMTVASLKDMVFLDYGFPPVLQQWVIGQRLARDQETLHSHGVRQNGDSAYLYLLSARNTSLNPQELQRERQLRMLEDLGFKDLTLQPRGPLEPGPPKPGVPQEPGRGQPDAVPEPPPVGWQCPGCTFINKPTRPGCEMCCRARPEAYQVPASYQPDEEERARLAGEEEALRQYQQRKQQQQEGNYLQHVQLDQRSLVLNTEPAECPVCYSVLAPGEAVVLRECLHTFCRECLQGTIRNSQEAEVSCPFIDNTYSCSGKLLEREIKALLTPEDYQRFLDLGISIAENRSAFSYHCKTPDCKGWCFFEDDVNEFTCPVCFHVNCLLCKAIHEQMNCKEYQEDLALRAQNDVAARQTTEMLKVMLQQGEAMRCPQCQIVVQKKDGCDWIRCTVCHTEICWVTKGPRWGPGGPGDTSGGCRCRVNGIPCHPSCQNCH [RBCK1]” are 0.08 and -0.0181.
